Measurements from patent US20250011391A1, “ULTRA LIGHT-SENSITIVE NEUROPSIN-BASED OPTOGENETIC TOOL FOR ACTIVATING G q-COUPLED SIGNALING AND/OR ACTIVATING CELLS” (GENANS BIOTECHNOLOGY CO., LTD, priority 2021, published 2025).

Tests used:
[1] = tested on: primary astrocyte cultures; experiment: Light-induced Ca2+ transients in cOpn5-expressing primary astrocyte cultures; assay type: cell-based, mouse; details: cOpn5-expressing astrocytes; Calbryte 630 AM
Description: cOpn5 optogenetics allows spatially precise control of cellular activity. Restricting brief light stimulation (63 ms) into a subcellular region of individual cOpn5-expressing HEK 293T cell results in the immediate activation of single cell. […] The findings are extended into primary cell cultures. cOpn5 is expressed in primary astrocyte cultures prepared from the neonatal mouse brain with AAV vectors for bicistronic expression of cOpn5 and the EGFP marker protein (FIG. 5a). […] If the light stimulation (63 ms) is precisely restricted to only subcellular region of an individual cOpn5-expressing astrocyte, Ca^2+ signal propagation within the individual cell is observed (FIG. 3f). Resembling the tests in HEK 293T cells, wave-like propagation of Ca^2+ signals from the stimulated astrocyte that proceeded gradually to more distal, non-stimulated, astrocytes is observed (FIG. 3g, h).
a, cOpn5 was expressed in cultured primary astrocytes using AAV-cOpn5-T2A-EGFP (green). Astrocyte identity was confirmed by GFAP immunostaining (red). Scale bar, 20 μm.
b, Pseudocolor images of the baseline and peak Ca^2+ signals following light stimulation of cOpn5-expressing astrocytes. Scale bar, 20 μm.
c, Plot of Ca^2+ signals and heat map representation of Ca^2+ signals across trials (n=25 cells).

[2] = tested on: MARCKS protein, a well-established target of PKC; experiment: Phosphorylation of MARCKS in cOpn5-expressing HEK 293T cells; assay type: cell-based; details: normalized to α-tubulin; PKC activity-dependent
Procedure: (§1) Whether heterologous expression of the Opn5 orthologs from chicken, turtles, humans and mice (which share 80-90% protein sequence identity) have the capacity to mediate blue light-induced Gq signaling activation within HEK 293T cells is tested (FIG. 1a and table 7). Blue light for stimulation and the red intracellular calcium indicator Calbryte™ 630 AM dye are used to monitor the relative Ca^2+ response (FIG. 1b).
g, Phosphorylation of MARCKS in cOpn5-expressing HEK 293T cells in the control group (no light stimulation), the light stimulation group, and light+staurosporine (ST, PKC inhibitor) group. The amount of p-MARCKS in the same fraction was normalized to the amount of α-tubulin. **P=0.0096, ***P=0.0004; Tukey's multiple comparisons test.
e, One representative of phosphorylation of MARCKS in cOpn5-expressing HEK 293T cells in the control group (no light stimulation), the light stimulation group, and light+staurosporine group. The amount of p-MARCKS in the same fraction was normalized to the amount of α-tubulin.

[3] = tested on: mouse cortical neurons; experiment: Ca2+ imaging (jRGECO1a) of cOpn5-expressing neurons in brain slice preparations; assay type: cell-based; details: 10 s; 100 μW/mm2; 473 nm
Description: The application of cOpn5-mediated optogenetics in neurons is explored. Whether cOpn5 could mediate light-induced Ca^2+ signals is firstly examined. Using AAV and the pan-neuronal SYN promoter, cOpn5 and the genetically-encoded Ca^2+ sensor jRGECOla are expressed in mouse cortical neurons (FIG. 8a). […] Thus, cOpn5 also enables light-induced activation in neurons.
b, Pseudocolor images show Ca^2+ signals before and after light stimulation (10 s; 100 μW/mm2; 473 nm). Scale bar, 10 μm.

[4] = tested on: Gq signaling in HEK 293T cells; experiment: IP1 accumulation in Opn5-expressing HEK 293T cells; assay type: cell-based; details: continuous light 3 min; 100 μW/mm2; 470 nm
Procedure: as §1
f, YM suppressed the IP1 accumulation evoked by continuous light stimulation (3 min; 100 μW/mm^2; 470 nm) in cOpn5-expressing HEK 293T cells (Left). ***P<0.0001, *P=0.0128; Tukey's multiple comparisons test.

[5] = tested on: GCaMP7b-expressing neurons in mouse S1 cortex; experiment: In vivo two-photon neuron calcium imaging following cOpn5-mediated astrocyte activation; details: cOpn5-mediated astrocytes activation; N=193 neurons
Procedure: Astrocytes release ATP and other gliotransmitters also act on neuronal receptors to modulate neuron activity. Two-photon imaging of neuronal Ca^2+ signals with cOpn5-mediated astrocytes activation from head-fixed awake, behaving mice, is performed (FIG. 6e). cOpn5-expressing cells (n=406) colocalize with GFAP-staining (n=397), but not GCaMP7b-expressing neurons (FIG. 6f).
e, Schematic diagram of the experimental setup for in vivo two-photon imaging (920 nm) of neuron calcium imaging following cOpn5-mediated astrocyte activation. Images show the expression of cOpn5 (red) in astrocytes and the expression of a GCaMP7b (green) in […] the mouse S1 cortex. Scale bar, 100 μm.
h, Calcium events analysis of GCaMP7b-expressing neurons in 0-5 min and 15-20 min, coupled with cOpn5-mediated astrocytes activation. N=193 neurons, ****P<0.0001, Unpaired t test.

[6] = tested on: neurons in slice preparations of the motor cortex, hippocampus, and dorsal striatum; experiment: Whole-cell patch-clamp recording of cOpn5-expressing neurons in slices; assay type: cell-based, mouse
Description: The effect of light-induced cOpn5 activation on the electrophysiological properties of neurons in slice preparations of the motor cortex, hippocampus, and dorsal striatum is next investigated (FIG. 8d). Two types of activation patterns are observed. In a majority of recorded neurons, blue light pulses induce a small depolarizing current (˜20 pA) in the voltage-clamp mode, and induce delayed-yet-vigorous firing of action potentials in the current-clamp mode (FIG. 8e, left, n=12 neurons). […] In the other subset of neurons, brief light pulses rapidly evoked strong inward currents (100-1000 pA) and drove bursting firing of action potentials (FIG. 8e, right, n=6 neurons). […] Of note, unlike generated by ChR2 optogenetics^53, the action potential evoked by cOpn5 photostimulation is not time-locked to light pulses.
d, Schematic diagram depicts optogenetic stimulation and whole-cell patch-clamp recording of cOpn5-expressing neurons in the cortex, striatum and hippocampus.

B1: cOpn5: Chicken (Gallus gallus) Opn5 (neuropsin) ortholog, SEQ ID NO:1, GenBank NM_001130743.1 (protein, listed as Gallus lafayetii)
chain: MSGMASDCNSSSQEEYLPHYVQQEDPFASKLSREADIIAGFYLTVIGILSTLGNGYVIFMSSKRKKKLRPAEIMTVNLAVCDLGISVVGKPFSIISFFSHRWIFGWMGCRWYGWAGFFFGCGSLITMTAVSLDRYLKICHLAYGTWLKRHHAFICLALIWAYATFWATVPFAGVGSYAPEPFGTSCTLDWWLAQASVAGQAFVLSILFFCLLFPTAVIVFSYVKIILKVKSSTKEVAHYDTRIQNSHILEMKLTKVAMLICAGFLIAWIPYAVVSVWSAFGQPDSVPIQFSVVPTLLAKSAAMYNPIIYQVIDCKFACCRSGGPKTLQKKSSLKESRMYTLSSHRDSAALSGTQLEV
Ca2+ transients on blue light illumination [1]: ~8 ΔF/F
blue light-triggered phosphorylation of MARCKS protein [2]: triggers the phosphorylation of MARCKS protein
Ca2+ transients in neurons on blue light pulses [3]: reliably evokes Ca^2+ transients
light-induced increase in the level of inositol phosphate (IP1) [4]: light-induced increase
neuron activity, 15-20 min compared to 0-5 min [5]: significantly elevates neuron activity
firing rate of neurons after pulsed 473 nm light stimulation ([6]; 1 Hz, 5 s, n=18): increased
firing rate across repetitive trials of light stimulation ([6]; 10 ms/pulse at 10 Hz): non-attenuated
spike latency after the initial light pulse, higher frequencies of light pulses ([6]; majority-type neurons): ~3 s
spike latency after the initial light pulse, lower frequency of light pulses ([6]; majority-type neurons): ~5 s
inward currents evoked by brief light pulses ([6]; other subset of neurons (n=6)): 100-1000 pA
depolarizing current induced by blue light pulses ([6]; voltage-clamp, majority of recorded neurons (n=12)): ~20 pA
